Reference: publication PMC4166353

Assays:
[1] = target: Complement component C4
[2] = target: Fluorescence quenched C4 P4-P4' substrate, 2-aminobenzoate-GLQRALEI-Lys(Dinitrophenol)-NH2

Row | EC50 for cleavage of the C4 alpha chain (C4 1 uM, enzyme 0-5 nM, 1 h, 37 C, SDS-PAGE densitometry) [1] [nM] | kcat/K0.5 for cleavage of the fluorescence quenched C4 P4-P4' peptide (400 nM enzyme, 0.5-500 uM substrate, 37 C) [2] [M⁻¹ s⁻¹] | Substance
1 | 0.77 | 110000 | Recombinant human C1s K628A mutant, activated (from UniProt P09871 16-688) (enzyme)
2 | 0.16 | 82000 | Recombinant human C1s, wild type, activated (from UniProt P09871 16-688) (enzyme)
3 | 0.76 | 95000 | Recombinant human C1s K628Q mutant, activated (from UniProt P09871 16-688) (enzyme)
